Assay [1] concerns the target T1, His-MsmLigD protein (M. smegmatis, UniProt A0R3R7 1-762).
T1 construct: Multifunctional DNA ligase LigD of Mycobacterium smegmatis; The vector pET28a with a BamHI insert would put the His tag at the N-terminus; source: E. coli BL21 (DE3), purified (Ni-NTA)
T1 sequence (looked up): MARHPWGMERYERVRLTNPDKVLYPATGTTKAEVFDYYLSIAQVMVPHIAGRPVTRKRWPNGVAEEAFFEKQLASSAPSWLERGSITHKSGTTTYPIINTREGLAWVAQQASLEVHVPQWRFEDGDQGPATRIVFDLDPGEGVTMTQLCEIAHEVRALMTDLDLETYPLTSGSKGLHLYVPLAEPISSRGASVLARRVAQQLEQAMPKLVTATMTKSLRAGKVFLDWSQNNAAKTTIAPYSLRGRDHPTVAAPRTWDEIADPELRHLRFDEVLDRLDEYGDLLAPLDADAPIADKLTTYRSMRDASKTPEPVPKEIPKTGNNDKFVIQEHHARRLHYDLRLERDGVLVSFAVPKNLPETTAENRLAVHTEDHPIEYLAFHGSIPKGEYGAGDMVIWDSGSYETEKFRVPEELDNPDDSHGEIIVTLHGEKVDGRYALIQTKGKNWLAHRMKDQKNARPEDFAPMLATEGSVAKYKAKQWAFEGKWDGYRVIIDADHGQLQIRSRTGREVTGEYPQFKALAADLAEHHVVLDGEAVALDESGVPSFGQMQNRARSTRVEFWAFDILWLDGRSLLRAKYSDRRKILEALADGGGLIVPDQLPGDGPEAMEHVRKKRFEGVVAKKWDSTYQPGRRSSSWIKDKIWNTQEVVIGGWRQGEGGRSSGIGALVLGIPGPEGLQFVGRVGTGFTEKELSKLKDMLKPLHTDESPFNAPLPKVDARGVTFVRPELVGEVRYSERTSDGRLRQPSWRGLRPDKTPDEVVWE
Nature of the assay: pull-down; GST fusion held on glutathione-Sepharose 4B beads, incubated with purified His-tagged protein at 4°C for 8 h in 50 mM Tris-HCl pH 7.5, 200 mM NaCl, 10% glycerol; washes with 0.1% Nonidet P-40; Western blot with anti-His-tag antibody. The settings on record: both partners purified.

Assay [2] addresses T2, His-MtuLigD protein (M. tuberculosis, UniProt P9WNV3 1-759).
T2 construct: The vector pET28a with a BamHI insert would put the His tag at the N-terminus
Nature of the assay: pull-down. Conditions: both partners purified.

T2 sequence (P9WNV3 whole entry): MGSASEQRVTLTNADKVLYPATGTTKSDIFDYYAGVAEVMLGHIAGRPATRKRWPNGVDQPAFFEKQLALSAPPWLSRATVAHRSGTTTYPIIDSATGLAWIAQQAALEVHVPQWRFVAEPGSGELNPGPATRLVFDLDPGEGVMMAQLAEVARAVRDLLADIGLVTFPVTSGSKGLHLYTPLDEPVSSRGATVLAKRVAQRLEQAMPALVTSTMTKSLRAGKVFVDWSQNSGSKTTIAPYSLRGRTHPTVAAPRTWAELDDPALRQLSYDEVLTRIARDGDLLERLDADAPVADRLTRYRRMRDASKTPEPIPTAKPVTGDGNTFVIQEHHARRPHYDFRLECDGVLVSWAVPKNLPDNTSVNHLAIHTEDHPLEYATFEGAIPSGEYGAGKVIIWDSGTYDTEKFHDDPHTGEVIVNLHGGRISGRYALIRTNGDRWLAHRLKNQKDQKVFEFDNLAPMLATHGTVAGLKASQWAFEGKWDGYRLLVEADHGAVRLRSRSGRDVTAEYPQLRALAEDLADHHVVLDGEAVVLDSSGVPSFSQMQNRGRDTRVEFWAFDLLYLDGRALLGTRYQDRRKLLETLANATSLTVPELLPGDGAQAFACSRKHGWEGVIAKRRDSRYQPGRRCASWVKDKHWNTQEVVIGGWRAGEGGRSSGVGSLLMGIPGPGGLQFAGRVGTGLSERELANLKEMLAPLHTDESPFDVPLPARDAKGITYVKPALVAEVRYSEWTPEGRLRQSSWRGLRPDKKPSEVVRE

B1: GST-MsmSir2 fusion protein (enzyme, M. smegmatis, UniProt A0R2N3 1-240, looked up)
chain: MQVTVLSGAGISAESGVPTFRDAETGLWAQVDPYEISSTDGWQRNPEKVWAWYLWRHYMMARVAPNEAHRTVAAWEDHLDVRVVTQNIDDLHERAGSTNVYHLHGSLFEFRCDACGSAFEGNLPEMPEPVETIDPPVCPCSGLIRPSVVWFGEPLPDAAWNRSVLAVSSADVVIVVGTSSIVYPAAGLPEAALAAGKPVIEVNPERTPLSDSATVSLRETASEALPTLLQRLPELLNRSA
notes: Sir2 (NAD-dependent deacetylase MSMEG_5175) of Mycobacterium smegmatis; the vector pGEX-6P-1 would put GST at the N-terminus; also called MsmSir2-GST; source: E. coli BL21 (DE3), purified (glutathione-Sepharose 4B)
Turning to B1, in assay [1], the binding result is recorded as “binds”.

B2: GST-MtuSir2 fusion protein (enzyme)
chain: MRVAVLSGAGISAESGVPTFRDDKNGLWARFDPYELSSTQGWLRNPERVWGWYLWRHYLVANVEPNDGHRAIAAWQDHAEVSVITQNVDDLHERAGSGAVHHLHGSLFEFRCARCGVPYTDALPEMPEPAIEVEPPVCDCGGLIRPDIVWFGEPLPEEPWRSAVEATGSADVMVVVGTSAIVYPAAGLPDLALARGTAVIEVNPEPTPLSGSATISIRESASQALPGLLERLPALLK
notes: the vector pGEX-6P-1 would put GST at the N-terminus; also called MtuSir2-GST
As for B2, in assay [2], the binding result is listed as “binds”.

Source of the values: publication PMC3102665, “A Sir2-Like Protein Participates in Mycobacterial NHEJ” (PLoS ONE, 2011).
